Laboratory results as given in US20170129959A1 (OSE IMMUNOTHERAPEUTICS, published 2017).
Where a chain is given by its changes, count along the chain named. In names and notes the source's numbering stands. Several values for one entry are separate records, joined by “and”; a condition that tells them apart may be missing. Identical values can stand only once.

T1: Recombinant CD127 Fc Chimera (10975-H03H, Sino Biological) (human, UniProt P16871 21-239)
T1 construct: Bought protein; also called hCD127-Ig; human CD127Fc; not shown: constant fragment of an immunoglobulin
T1 chain: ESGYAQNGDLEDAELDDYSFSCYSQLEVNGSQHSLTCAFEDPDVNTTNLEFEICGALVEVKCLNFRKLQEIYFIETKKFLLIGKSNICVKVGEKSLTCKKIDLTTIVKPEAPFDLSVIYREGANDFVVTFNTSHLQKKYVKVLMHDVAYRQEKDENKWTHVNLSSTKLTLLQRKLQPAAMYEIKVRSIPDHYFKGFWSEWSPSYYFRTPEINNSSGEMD

T2: Human CD127 (IL-7 receptor alpha chain) expressed on cells (human, UniProt P16871 21-459)
T2 chain: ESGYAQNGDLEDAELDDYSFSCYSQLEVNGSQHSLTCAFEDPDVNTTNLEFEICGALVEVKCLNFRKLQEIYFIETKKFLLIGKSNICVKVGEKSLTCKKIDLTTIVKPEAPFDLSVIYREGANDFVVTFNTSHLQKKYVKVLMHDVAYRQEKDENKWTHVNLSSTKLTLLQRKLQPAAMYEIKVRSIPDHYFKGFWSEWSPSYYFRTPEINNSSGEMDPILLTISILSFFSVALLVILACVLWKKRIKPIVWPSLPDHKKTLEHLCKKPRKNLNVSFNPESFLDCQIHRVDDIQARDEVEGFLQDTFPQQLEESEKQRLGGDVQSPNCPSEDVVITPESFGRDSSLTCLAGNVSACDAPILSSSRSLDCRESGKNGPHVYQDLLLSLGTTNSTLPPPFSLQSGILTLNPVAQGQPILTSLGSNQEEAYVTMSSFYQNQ

T3: Recombinant hCD127 (Sino Biologicals, reference 10975-H08H) (human, UniProt P16871 21-239)
T3 construct: Bought protein; also called recombinant hCD127 antigen; rCD127
T3 chain: T1 chain

B1: N13B2 wt (antibody, V domains shown)
VH: AVQLVESGGGLVQPGGSLKLSCAVSGFTLSDYYMAWVRQAPKKGLEWVATISASGLRTYYPDSVKGRFTISRDDAKRSLFLQMTSLKSEDTATYYCARPMSAHYGFNYFDYWGQGVMVTVSS
VL: DIQMTQSPASLSASLGETVTIECRTSEDIYNGLAWYQQKPGKSPQLLVYSANSLHIGVPSRFSGSGSGTQYSLKINSLQFEDVASYFCQQYYDYPLAFGSGTKLEIKR
notes: also called Rat N13B2 wt
B2: N13B2 (rat anti-human CD127 monoclonal antibody) (antibody, V domains shown)
VH: B1 VH
VL: B1 VL
notes: Rat hybridoma antibody; It was detected with anti-rat kappa; also called rat N13B2; N13B2 mAb
B3: N13B2-G4 (chimeric N13B2, human IgG4 Fc S228P, human CL kappa) (antibody)
heavy: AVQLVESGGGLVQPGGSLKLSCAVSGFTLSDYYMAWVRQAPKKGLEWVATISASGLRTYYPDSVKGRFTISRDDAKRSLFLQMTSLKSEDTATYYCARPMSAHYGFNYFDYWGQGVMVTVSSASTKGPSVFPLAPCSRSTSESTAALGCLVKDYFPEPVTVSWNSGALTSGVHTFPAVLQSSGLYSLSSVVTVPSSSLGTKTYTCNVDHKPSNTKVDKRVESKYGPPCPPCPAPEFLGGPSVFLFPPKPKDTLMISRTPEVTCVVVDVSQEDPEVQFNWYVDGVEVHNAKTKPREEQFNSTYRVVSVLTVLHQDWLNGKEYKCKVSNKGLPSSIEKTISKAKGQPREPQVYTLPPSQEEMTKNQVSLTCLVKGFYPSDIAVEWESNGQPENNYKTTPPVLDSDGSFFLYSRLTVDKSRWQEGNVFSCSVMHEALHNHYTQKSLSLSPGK
light: DIQMTQSPASLSASLGETVTIECRTSEDIYNGLAWYQQKPGKSPQLLVYSANSLHIGVPSRFSGSGSGTQYSLKINSLQFEDVASYFCQQYYDYPLAFGSGTKLEIKRTVAAPSVFIFPPSDEQLKSGTASVVCLLNNFYPREAKVQWKVDNALQSGNSQESVTEQDSKDSTYSLSSTLTLSKADYEKHKVYACEVTHQGLSSPVTKSFNRGEC
notes: also called cN13B2-G4; N13B2-G4m
B4: N13B2-G1 (chimeric N13B2, human IgG1 Fc E333A, human CL kappa) (antibody)
heavy: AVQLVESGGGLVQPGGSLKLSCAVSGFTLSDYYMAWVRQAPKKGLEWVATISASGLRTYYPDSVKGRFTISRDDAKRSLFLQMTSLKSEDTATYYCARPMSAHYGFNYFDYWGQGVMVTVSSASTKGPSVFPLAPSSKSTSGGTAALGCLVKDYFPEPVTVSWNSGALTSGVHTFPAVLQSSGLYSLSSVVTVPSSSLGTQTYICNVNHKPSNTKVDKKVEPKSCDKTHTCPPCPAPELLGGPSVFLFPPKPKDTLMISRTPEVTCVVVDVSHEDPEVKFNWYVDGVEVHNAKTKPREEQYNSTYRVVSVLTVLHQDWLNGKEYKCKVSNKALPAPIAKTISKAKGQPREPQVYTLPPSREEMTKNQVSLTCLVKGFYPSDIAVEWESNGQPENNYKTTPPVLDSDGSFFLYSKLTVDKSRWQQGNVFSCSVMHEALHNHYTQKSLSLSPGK
light: B3 light
notes: also called cN13B2-G1; N13B2-G1m
B5: MD707-3 (rat anti-human CD127 antibody, previous generation) (antibody, V domains shown)
VH: AVHLVESGGGLVQPKESLKISCAASGFTFSNAAMYWVRQAPGKGLEWVARIRTKANNYATYYAESVKGRFTISRDDSKSMVYLQMDNVKTDDTAMYYCIVVVLTTTRDYFDYWGQGVMVTVSS
VL: DIVLTQAPLSVSVTPGESASISCRSSQSLLTVKGITSLYWFLQKPGKSPQLLIYRMSNLASGVPDRFRGSGSETDFTLKISKVETEDVGVYYCAQFLEYPHTFGAGTKLELKR
B6: N13B2-h2 (humanized N13B2) (antibody, V domains shown)
VH: QVQLVESGGGLVKPGGSLRLSCAVSGFTLSDYYMAWIRQAPGKGLEWVSTISASGLRTYYPDSVKGRFTISRDNAKNSLYLQMNSLRAEDTAVYYCARPMSAHYGFNYFDYWGQGTLVTVSS
VL: EIVMTQSPATLSVSPGERATLSCRTSEDIYNGLAWYQQKPGQAPRLLIYSANSLHIGIPARFSGSGSGTEFTLTISSLQSEDFAVYYCQQYYDYPLAFGGGTKVEIK
notes: Variable regions only
B7: N13B2-h1 (humanized N13B2) (antibody, V domains shown)
VH: B6 VH with I37V, S49A, N74D
VL: B6 VL with I48V, F71Y, Y87F
B8: N13B2-h3 (humanized N13B2) (antibody, IgG4, V domains shown)
VH: B6 VH with M100L
VL: B6 VL with N31Q, S53T
notes: Variable regions only

Legend:
[1] = target: T1, Recombinant CD127 Fc Chimera …; experiment: ELISA, human CD127Fc coated, revealed with anti-human kappa antibody; printed as ED 50
[2] = target: T2, Human CD127 (IL-7 receptor alpha chain) …; experiment: cell-based or functional assay
[3] = target: T3, Recombinant hCD127 (Sino Biologicals, …); experiment: ELISA on immobilised recombinant hCD127; antibody stored 7 days at -80 °C
Protocol: (§1) FIG. 15. Stability assay of humanized versus Rat anti-CD127 antibodies. Antibody concentrations was measured by ELISA after 7 days at 37° C. (Rat N13B2 wt (+) or humanized N13B2 h3 (square)) and at −80° C. (Rat N13B2 wt (X) or humanized N13B2 h3 (triangle)) and after four frost/defrost events (diamonds).
(§2) Humanized and chimeric purified N13B2-G1 were incubated at 37° C. or at −80° C. for 7 days. Two assays were used to measure stability of antibody: binding anti-CD127 by ELISA assay, and aggregate formation by gel filtration. For activity ELISA assay, recombinant hCD127 (Sino Biologicals, Beijing, China; reference 10975-H08H) was immobilized on plastic at lpg/ml and dilutions of supernatant were added to measure binding. […] For analysis of aggregate formation, sample was analysed on gel filtration chromatography column (Superdex 200, 10/300GL, GeHealthcare) to separate and evaluate aggregate and monomer from samples.

[4] = target: T3, Recombinant hCD127 (Sino Biologicals, …); experiment: ELISA on coated recombinant hCD127, anti-human kappa detection; antibody stored 7 days at 37 °C; printed as ED 50
Protocol: as §1, §2

[5] = target: T3, Recombinant hCD127 (Sino Biologicals, …); experiment: ELISA on immobilised recombinant hCD127; antibody stored 7 days at 37 °C
Protocol: as §1, §2

[6] = target: T3, Recombinant hCD127 (Sino Biologicals, …); experiment: ELISA on coated recombinant hCD127, anti-human kappa detection; antibody stored 7 days at -80 °C; printed as ED 50
Protocol: as §1, §2

[7] = target: T1, Recombinant CD127 Fc Chimera …; experiment: ELISA, coated human CD127Fc, revealed with an anti-human kappa antibody
[8] = target: T3, Recombinant hCD127 (Sino Biologicals, …); experiment: ELISA on immobilised recombinant hCD127
Protocol: (§3) The binding activity of the anti hCD127 antibody was assessed by ELISA (Enzyme-linked immunosorbent assay). For the ELISA assay, recombinant hCD127 (Sino Biologicals, Beijing, China; reference 10975-H08H) was immobilized on plastic at 1 μg/ml and purified antibody were added to measure binding.

[9] = target: T2, Human CD127 (IL-7 receptor alpha chain) …; experiment: cell-based or functional assay
[10] = target: T1, Recombinant CD127 Fc Chimera …; experiment: SPR (Biacore 3000), CD127Fc immobilised on CM5 chip, antibody injected, Bivalent analyte model
Protocol: FIG. 3. (A) Binding studies of rat N13B2 anti-CD127 antibody. N13B2 antibody or MD707-1 were injected on a CD127 immobilized antigen at different concentration. Resp. diff: Response difference. Time: time in sec (total duration: 20 min). Blk: blank (no antibody). The association and dissociation curves were analyzed with model “Bivalent analyte” on BIAeval 4 software.
(§4) A CM5 chip (GE healthcare) was activated by injection of NHS/EDC mix for 7 min. […] The free reactive residues were inactivated by the injection of 1M ethanolamine pH8.5. […] The injection rate was set at 40 μL/min, the association was measured for 3 min and dissociation for 10 min. Between each cycle of the analysis, the chip was regenerated by injection of a solution of 5M MgCl2 for 60 s.

[11] = target: T1, Recombinant CD127 Fc Chimera …; experiment: SPR (Biacore 3000), CD127Fc immobilised on CM5 chip, antibody injected, Bivalent analyte model; separate experiment
Protocol: as §4

[12] = target: T3, Recombinant hCD127 (Sino Biologicals, …); experiment: ELISA, recombinant hCD127 coated on plastic at 1 µg/ml, antibody titrated; printed as ED 50
Protocol: FIG. 4. The Anti CD127 activity of the new antibody N13B2 was measured by ELISA assay using a recombinant hCD127 antigen. OD 450 nm: optical density at 450 nm. A. The CD127 binding activity of the N13B2 (full circle) was compared to the previous antibody generation (MD707-1 (empty diamond), 3 (empty triangle) and 6 (full square)). N13B2 appears as the most efficient binder in the assay. B. The CD127 activity between different N13B2 formats (rat, IgG1 (circle) or IgG4 (square)) was compared. No significant difference in binding activity was observed.
as §3

[13] = target: T2, Human CD127 (IL-7 receptor alpha chain) …; experiment: cell-based or functional assay
[14] = target: T3, Recombinant hCD127 (Sino Biologicals, …); experiment: ELISA on coated recombinant hCD127, anti-human kappa detection; antibody after 4 frost/defrost events; printed as ED 50
[15] = target: T3, Recombinant hCD127 (Sino Biologicals, …); experiment: ELISA on immobilised recombinant hCD127; antibody after four frost/defrost events

Binder	EC50 [1] [ng/mL]	IC 50 of inhibition of IL7 induced P-STAT5 on T lymphocytes (0.1 ng/ml rhIL-7) [2] [ng/mL]	inhibition of STAT5 phosphorylation in human PBMC [9]	Ka [11] [M⁻¹]	Kd [11] [nM]	koff [11] [s⁻¹]	kon [11] [M⁻¹ s⁻¹]	EC50 [12] [ng/mL]	IC50 on P-STAT5 induced by 100 pg/ml of rhIL7 [13] [ng/mL]	other results
B1	3	50.2								EC50 (read off the curve) [3]: ~3 ng/mL; EC50 [4]: 3.5 ng/mL; EC50 (read off the curve) [5]: ~4 ng/mL; EC50 [6]: 3.6 ng/mL; EC50 (read off the curve) [7]: ~3 ng/mL
B2			> 50 % inhibition at 50 ng/ml and > 80 % inhibition at 100 ng/ml (0.1 ng/ml IL-7) and > 90 % inhibition at 100 ng/ml (5 ng/ml IL-7)	2.03e+10	0.0493	4.75e-06	96300	65.6	0.043	EC50 (read off the curve) [8]: ~60 ng/mL; Ka [10]: 1.26e+10 M⁻¹; Kd [10]: 0.0796 nM; koff [10]: 1.6e-05 s⁻¹; kon [10]: 201000 M⁻¹ s⁻¹
B3			> 50 % inhibition at 50 ng/ml and > 80 % inhibition at 100 ng/ml (0.1 ng/ml IL-7) and > 90 % inhibition at 100 ng/ml (5 ng/ml IL-7)	5.89e+09	0.17	3.41e-06	20100	12.6	0.037	
B4			> 50 % inhibition at 50 ng/ml and > 80 % inhibition at 100 ng/ml (0.1 ng/ml IL-7) and > 90 % inhibition at 100 ng/ml (5 ng/ml IL-7)	2.65e+09	0.377	5.62e-05	149000	12	0.028	
B5								293	1.09	
B6	0.6	18.7								
B7	2.4	63.8								EC50 (read off the curve) [7]: ~2 ng/mL
B8	0.6	21.2								EC50 (read off the curve) [3]: ~1 ng/mL; EC50 [4]: 1.1 ng/mL; EC50 (read off the curve) [5]: ~1 ng/mL; EC50 [6]: 1.3 ng/mL; EC50 [14]: 1.7 ng/mL; EC50 (read off the curve) [15]: ~2 ng/mL
